Laboratory results as given in US20190112340A1 (US Dept. of Health and Human Services, published 2019).

Legend:
sc8 DS-Cav1 = experiment: BLI (Octet), F on Ni-NTA tips, Fab in solution
sc11 DS-Cav1 = sc11 DS-Cav1 (Engineered disulfide 155C-290C. Engineered cysteines 512C/513C. Glycoprotein; one protomer is given.); experiment: BLI (Octet), F on Ni-NTA tips, Fab in solution
sc9-19 DS-Cav1 [1] = molecular target: T1, sc9-19 DS-Cav1 (Engineered disulfide 155C-290C. Glycoprotein; it assembles as a trimer and one protomer is given.); experiment: BLI (Octet), F on Ni-NTA tips, Fab in solution
sc9-24 DS-Cav1 [2] = experiment: BLI (Octet), F on Ni-NTA tips, Fab in solution
sc9 DS-Cav1-105Q = sc9 DS-Cav1-105Q (Engineered disulfide 155C-290C. Glycoprotein; it assembles as a trimer and one protomer is given.); experiment: BLI (Octet), F on Ni-NTA tips, Fab in solution
RSV F sc9-10 DS-Cav1 [3] = molecular target: T2, RSV F sc9-10 DS-Cav1 (human RSV subtype A (strain A2)); experiment: BLI (Octet), F on Ni-NTA tips, Fab in solution
RSV F sc9-9 DS-Cav1 = RSV F sc9-9 DS-Cav1 (human RSV subtype A (strain A2), UniProt P03420 26-96; P03420 145-513); experiment: BLI (Octet), F on Ni-NTA tips, Fab in solution
[4] = molecular target: sc9-10 DS-Cav1 Q98C, Q361C L95M-I221M-R429K (B18537); experiment: BLI (Octet), F on Ni-NTA tips, Fab in solution
[5] = molecular target: sc9-10 DS-Cav1 Q98C, Q361C S46G-E92D-L95M-S215P-I217P-I221M-R429K-K465Q (Long (VR26)); experiment: BLI (Octet), F on Ni-NTA tips, Fab in solution
sc9-19 DS-Cav1 [6] = molecular target: T1, sc9-19 DS-Cav1; experiment: BLI (Octet), D25 Fab binding after/before stress
sc9-24 DS-Cav1 [7] = experiment: BLI (Octet), D25 Fab binding after/before stress
RSV F sc9-10 DS-Cav1 [8] = molecular target: T2, RSV F sc9-10 DS-Cav1; experiment: BLI (Octet), D25 Fab binding after/before stress
[9] = molecular target: T3, bRSV F ATue51908 sc9-10 DS-Cav1 A149C Y458C (bovine RSV, strain ATue51908 …); experiment: Fab binding to purified bRSV F trimer (Octet BLI as in Example 1)
bRSV F RB94 DS-Cav1 [10] = molecular target: T4, bRSV F RB94 DS-Cav1 (bovine RSV, strain RB94, UniProt P23728 26-109; P23728 137-513); experiment: as above
[11] = molecular target: T5, bRSV F 391-2 sc9 DS-Cav1 Q98C Q361C (bovine RSV, strain 391-2, UniProt P22167 26-513); experiment: as above
[12] = molecular target: T6, bRSV F strain 391-2 sc9-10, DS-Cav1, Q98C-Q361C (bovine RSV, strain 391-2); experiment: as above
bRSV F 391-2 DS-Cav1 [13] = molecular target: T7, bRSV F 391-2 DS-Cav1 (bovine RSV, strain 391-2, UniProt P22167 26-574); experiment: as above
bRSV F ATue51908 DS-Cav1 [14] = molecular target: T8, bRSV F ATue51908 DS-Cav1 (bovine RSV, strain ATue51908, UniProt P22167 26-109; P22167 137-513); experiment: as above
[15] = molecular target: T3, bRSV F ATue51908 sc9-10 DS-Cav1 A149C …; experiment: D25 binding to stressed pre-F trimer as a fraction of the untreated protein (physical stability)
bRSV F RB94 DS-Cav1 [16] = molecular target: T4, bRSV F RB94 DS-Cav1; experiment: as above
[17] = molecular target: T5, bRSV F 391-2 sc9 DS-Cav1 Q98C Q361C; experiment: as above
[18] = molecular target: T6, bRSV F strain 391-2 sc9-10, DS-Cav1, …; experiment: as above
bRSV F 391-2 DS-Cav1 [19] = molecular target: T7, bRSV F 391-2 DS-Cav1; experiment: as above
bRSV F ATue51908 DS-Cav1 [20] = molecular target: T8, bRSV F ATue51908 DS-Cav1; experiment: as above
RSVF Cav1only = experiment: ELISA after 1 week at 4 °C
sc9-10 Cav1only = experiment: ELISA after 1 week at 4 °C
sc9-10 Cav1only 98-361 = experiment: ELISA after 1 week at 4 °C
sc9-10 Cav1only 99-361 = experiment: ELISA after 1 week at 4 °C
sc9-10 Cav1only 100-361 = experiment: ELISA after 1 week at 4 °C
sc9-10 Cav1only 98-362 = experiment: ELISA after 1 week at 4 °C
sc9-10 Cav1only 99-362 = experiment: ELISA after 1 week at 4 °C
sc9-10 Cav1only 100-362 = experiment: ELISA after 1 week at 4 °C
sc9-10 Cav1only 146-458 = experiment: ELISA after 1 week at 4 °C
sc9-10 Cav1only 369-455 = experiment: ELISA after 1 week at 4 °C
[21] = molecular target: sc9-10 A149C Y458C Long CAV1only; experiment: ELISA after 1 week at 4 °C
[22] = molecular target: sc9-10 N183GC N428C Long CAV1only; experiment: ELISA after 1 week at 4 °C

B1: D25 Fab (Fab, V domains shown)
VH: QVQLVQSGAEVKKPGSSVMVSCQASGGPLRNYIINWLRQAPGQGPEWMGGIIPVLGTVHYAPKFQGRVTITADESTDTAYIHLISLRSEDTAMYYCATETALVVSTTYLPHYFDNWGQGTLVTVSS
VL: DIQMTQSPSSLSAAVGDRVTITCQASQDIVNYLNWYQQKPGKAPKLLIYVASNLETGVPSRFSGSGSGTDFSLTISSLQPEDVATYYCQQYDNLPLTFGGGTKVEIKR
sc8 DS-Cav1
  Kd: 7.4 nM
sc11 DS-Cav1
  Kd: 0.7 nM
sc9-19 DS-Cav1 [1]
  Kd: 0.8 nM
sc9-24 DS-Cav1 [2]
  Kd: 0.8 nM
sc9 DS-Cav1-105Q
  Kd: 0.7 nM
RSV F sc9-10 DS-Cav1 [3]
  Kd: 0.8 nM
RSV F sc9-9 DS-Cav1
  Kd: 0.2 nM
[4]
  Kd: 0.1 nM
[5]
  Kd: 0.1 nM
sc9-19 DS-Cav1 [6]
  fractional D25 reactivity, 50 °C: 0.9
  fractional D25 reactivity, 70 °C: 0.9
  fractional D25 reactivity, freeze-thaw: 0.04
  fractional D25 reactivity, osmolality 10 mM: 0.6
  fractional D25 reactivity, osmolality 3000 mM: 0.5
  fractional D25 reactivity, pH 3.5: 0.7
  fractional D25 reactivity, pH 10.0: 0.8
sc9-24 DS-Cav1 [7]
  fractional D25 reactivity, 50 °C: 0.9
  fractional D25 reactivity, 70 °C: 0.9
  fractional D25 reactivity, freeze-thaw: 0
  fractional D25 reactivity, osmolality 10 mM: 0.5
  fractional D25 reactivity, osmolality 3000 mM: 0.5
  fractional D25 reactivity, pH 3.5: 0.7
  fractional D25 reactivity, pH 10.0: 0.7
RSV F sc9-10 DS-Cav1 [8]
  fractional D25 reactivity, 50 °C: 0.9
  fractional D25 reactivity, 70 °C: 0.9
  fractional D25 reactivity, freeze-thaw: 0.2
  fractional D25 reactivity, osmolality 10 mM: 1.4
  fractional D25 reactivity, osmolality 3000 mM: 0.7
  fractional D25 reactivity, pH 3.5: 1.5
  fractional D25 reactivity, pH 10.0: 0.7
[9]
  Kd: 420 nM
bRSV F RB94 DS-Cav1 [10]
  Kd: 24.3 nM
[11]
  Kd: 24.3 nM
[12]
  Kd: 57.5 nM
bRSV F 391-2 DS-Cav1 [13]
  Kd: 0.4 nM
bRSV F ATue51908 DS-Cav1 [14]
  Kd: 10.8 nM
[15]
  fractional antibody reactivity after 10 cycles of freeze-thaw: 1 fraction
  fractional antibody reactivity after 50 °C: 0.9 fraction
  fractional antibody reactivity after 70 °C: 0.9 fraction
  fractional antibody reactivity after osmolarity 10 mM: 0.7 fraction
  fractional antibody reactivity after osmolarity 3000 mM: 0.8 fraction
  fractional antibody reactivity after pH 3.5: 1 fraction
  fractional antibody reactivity after pH 10.0: 0.9 fraction
bRSV F RB94 DS-Cav1 [16]
  fractional antibody reactivity after 10 cycles of freeze-thaw: 1 fraction
  fractional antibody reactivity after 50 °C: 0.6 fraction
  fractional antibody reactivity after 70 °C: 0.1 fraction
  fractional antibody reactivity after osmolarity 10 mM: 0.8 fraction
  fractional antibody reactivity after osmolarity 3000 mM: 0.5 fraction
  fractional antibody reactivity after pH 3.5: 1.2 fraction
  fractional antibody reactivity after pH 10.0: 1.3 fraction
[17]
  fractional antibody reactivity after 10 cycles of freeze-thaw: 1 fraction
  fractional antibody reactivity after 50 °C: 0.9 fraction
  fractional antibody reactivity after 70 °C: 0.8 fraction
  fractional antibody reactivity after osmolarity 10 mM: 1 fraction
  fractional antibody reactivity after osmolarity 3000 mM: 0.9 fraction
  fractional antibody reactivity after pH 3.5: 1.2 fraction
  fractional antibody reactivity after pH 10.0: 1 fraction
[18]
  fractional antibody reactivity after 10 cycles of freeze-thaw: 1 fraction
  fractional antibody reactivity after 50 °C: 1 fraction
  fractional antibody reactivity after 70 °C: 1 fraction
  fractional antibody reactivity after osmolarity 10 mM: 0.8 fraction
  fractional antibody reactivity after osmolarity 3000 mM: 0.8 fraction
  fractional antibody reactivity after pH 3.5: 0.9 fraction
  fractional antibody reactivity after pH 10.0: 0.9 fraction
bRSV F 391-2 DS-Cav1 [19]
  fractional antibody reactivity after 10 cycles of freeze-thaw: 1 fraction
  fractional antibody reactivity after 50 °C: 0.7 fraction
  fractional antibody reactivity after 70 °C: 0.1 fraction
  fractional antibody reactivity after osmolarity 10 mM: 0.9 fraction
  fractional antibody reactivity after osmolarity 3000 mM: 0.6 fraction
  fractional antibody reactivity after pH 3.5: 0.9 fraction
  fractional antibody reactivity after pH 10.0: 1.2 fraction
bRSV F ATue51908 DS-Cav1 [20]
  fractional antibody reactivity after 10 cycles of freeze-thaw: 1 fraction
  fractional antibody reactivity after 50 °C: 0.9 fraction
  fractional antibody reactivity after 70 °C: 0.1 fraction
  fractional antibody reactivity after osmolarity 10 mM: 0.7 fraction
  fractional antibody reactivity after osmolarity 3000 mM: 0.4 fraction
  fractional antibody reactivity after pH 3.5: 0.9 fraction

B2: D25 antibody (antibody, V domains shown)
VH: B1 VH
VL: B1 VL
RSVF Cav1only
  ELISA signal (antigenicity): 3.33
sc9-10 Cav1only
  ELISA signal (antigenicity): 3.6
sc9-10 Cav1only 98-361
  ELISA signal (antigenicity): 1.84
sc9-10 Cav1only 99-361
  ELISA signal (antigenicity): 2.89
sc9-10 Cav1only 100-361
  ELISA signal (antigenicity): 0.92
sc9-10 Cav1only 98-362
  ELISA signal (antigenicity): 0.957
sc9-10 Cav1only 99-362
  ELISA signal (antigenicity): 1.39
sc9-10 Cav1only 100-362
  ELISA signal (antigenicity): 0.416
sc9-10 Cav1only 146-458
  ELISA signal (antigenicity): 2.34
sc9-10 Cav1only 369-455
  ELISA signal (antigenicity): 2.94
[21]
  ELISA signal (antigenicity): 2.88
[22]
  ELISA signal (antigenicity): 0.502
